# Marks after values point to notes of the source that are not given here.
# B1: Caldibacillus cellulovorans CompA.2 (CA2) DNA polymerase, SEQ ID NO:16 ([Caldibacillus] cellulovorans) (protein)
# chain: MKYLLPTAAAGLLLLAAQPAMAMGKLILVDGNSVANRAFYAVRLLSTRGGLHTNAVYGFANMLLKLIEEERPTHFLVAFDAGKATFRHREYEAYKAGRLQTPPELSEQFPYIRELVRAFGVASGELEEYEADDMIGTLAKRAEAEGVDTLVVTGDRDLLQLVSDRVTVALTRKGITETERYDPARIREEYGFDPDRIRDLKGLMGDASDNLPGVPGVGEKTALKLLRQYGSLESVLEHASEIAGKLGENLRAHADAARLSKRLATIDCAVPLQSGWDWLRLGEPDRAALASLLRQLEFKSLLKRLGLDGTSADADVDGVRSSARPADEKRPRAVAVAEEGVDVRCPDRPEEVEEALSRLEAAQSVVVEVTGDNPHDGEVRGVAWWDGHTAYFIPFERLVQSDMRPLADWLADARRPKRTHDSHRAEVALFWHGLAFRGTSFCTHIAAYLLDPTESRHTLADLSRRYGLPPVPEAEDVYGKGAKFKVPDRDTLARYVGRKAALVARLVPLLEADLAACGMRSLFYDLELPLSSELAVMETVGVRVDAAALAAYGEELREAAAKVEREIYELAGTTFNIGSTKQLGEILFDKLGLPVVKKTKTGYSTDADVLEELAPYHPIVEKILHYRQLTKLQSTYIEGLLKEIRPQTGKIHTYYQQTIAATGRLSSQFPNLQNIPIRLEEGRKIRKAFVPSEPGWLMLAADYSQIELRVLAHVSGDERLKEAFRTGMDIHTKTAMDVFGVSEDRVDARMRRQAKAVNFGIIYGISDFGLAQNLNISRKEAAEFIRQYFAVFSGVKAYRERIVEQARRDGYVTTLLGRRRYLPDINASNYNLRSFAERTAMNTPIQGTAADIIKTAMVRLTRRMRDVGLKSRMLLQVHDELVFEVPPDELDAMRELVTDVMESAVPLDVPLKVDVSWGADWYAAK
# B2: Bacillus caldolyticus EA1.3 (B.EA1) DNA polymerase, SEQ ID NO:20 ([Bacillus] caldolyticus) (protein)
# chain: MKYLLPTAAAGLLLLAAQPAMAMGLKKKLVLIDGSSVAYRAFFALPLLHNDKGIHTNAVYGFTMMLNKILAEEEPTHMLVAFDAGKTTFRHEAFQEYKGGRQQTPPELSEQFPLLRELLRAYRIPAYELENYEADDIIGTLAARAEQEGFEVKVISGDRDLTQLASPHVTVDITKKGITDIEPYTPEAVREKYGLTPEQIVDLKGLMGDKSDNIPGVPGIGEKTAVKLLKQFGTVENVLASIDEIKGEKLKETLRQHREMALLSKKLAAIRRDAPVELSLDDIVYQGEDREKVVALFKELGFQSFLEKMESPSSEEEKPLAKMAFTLADRVTEEMLADKAALVVEVVEENYHDAPIVGIAVVNEHGRFFLRPETALADPQFVAWLGDETKKKSMFDSKRAAVALKWKGIELCGVSFDLLLAAYLLDPAQGVDDVAAAAKMKQYEAVRSDEAVYGKGAKRAVPDEPVLAEHLVRKAAAIWALERPFLDELRRNEQDRLLVELEQPLSSILAEMEFAGVKVDTKRLEQMGEELAEQLRTVEQRIYELAGQEFNINSPKQLGVILFEKLQLPVLKKTKTGYSTSADVLEKLAPYHEIVENILHYRQLGKLQSTYIEGLLKVVRPDTKKVHTIFNQALTQTGRLSSTEPNLQNIPIRLEEGRKIRQAFVPSESDWLIFAADYSQIELRVLAHIAEDDNLMEAFRRDLDIHTKTAMDIFQVSEDEVTPNMRRQAKAVNFGIVYGISDYGLAQNLNISRKEAAEFIERYFESFPGVKRYMENIVQEAKQKGYVTTLLHRRRYLPDITSRNFNVRSFAERMAMNTPIQGSAADIIKKAMIDLNARLKEERLQARLLLQVHDELILEAPKEEMERLCRLVPEVMEQAVTLRVPLKVDYHYGSTWYDAK
# B3: Dictyoglomus thermophilum strain Rt46B.1 (Dth) DNA polymerase, SEQ ID NO:22 (Dictyoglomus thermophilum) (protein)
# chain: MKYLLPTAAAGLLLLAAQPAMAMDIGINSDPKSLWDLFQENTEKESKRKILIIDGSSLIYRVYYALPPLKTKNGELTNALYGFIRILLKAVEDFNPDLVGVAFDRPEPTFRHVIYKEYKAKRPPMKDDLKAQIPWIREFLRLNDIPLLEEPGYEADDIIATIVNKYKDDLKYILSGDLDLLQLVSDKTFLIHPQKGITEFTIYDPKAVKDRFGVEPYKIPLYKVLVGDESDNIPGVNGIGPKKASKILEKISSVDEFKSKIKVLDSDLRELIEKNWNIIERNLELVTLKNIDKDLILKPFEIKRDEKVIDFLKRYELKSILQKLFPDLQEEENIEIKDVEEINFNEVEKEGYFAFKCLGDRAFEGISLSFKEGEGYFISPFDFNNEIRKKIENIISSENVKKIGSYIQRDLHFLNCKIKGDVFDVSLASYLLNPERQNHSLDILIGEYLNKTSFIPQKYAGYLFPLKSILEERIKNEGLEFVLYNIEIPLIPVLYSMEKWGIKVDKEYLKQLSDEFCERIKKLEEEIYELAGTRFNLNSPKQLSEVLFERLKLPSGKKGKTGYSTSSSVLQNLINAHPIVRKILQYRELYKLKSTYVDAIPNLVNPQTGRVHTKFNPTGTATGRISSSEPNLQNIPIKSEEGRKIRRAFVSEDGYFLVSLDYSQIELRIMAHLSQEPKLISAFQKGEDIHRRTASEIFGVPEEEVDDLLRSRAKAVNFGIIYGISSFGLSETVSITPEEAEKFIDSYFKHYPRVKLFIDKTIHEAREKLYVKTLFGRKRYIPEIKSINKQVRNAYERIAINAPIQGTAADIIKLAMIEIYKEIENKNLKSRILLQIHDELILEVPEEEMEFTPLMAKEKMEKVVELSVPLVVEISVGKNLAELK
# Tests used:
# Test in all cases: Steady-state kinetics, DNA- and RNA-dependent polymerase activity
# [1] = substrate: Cc1cn([C@H]2C[C@H](O)[C@@H](COP(=O)(O)OP(=O)(O)OP(=O)(O)O)O2)c(=O)[nH]c1=O; type: biochemical, Caldibacillus cellulovorans CompA.2; conditions: 55 °C, mean ± SD
# Protocol: (§1) Purification of CA2, B.EA1, Rt41A, Dth, Tok13B, Tok7B, and Rt69B DNA polymerase. E. coli cells (BL21SI, Invitrogen Corporation, Carlsbad, Calif.) bearing the plasmid pET26B with the gene for CA2, B.EA1, Rt41A, or Dth DNA polymerase were grown in 2.8-1 Fembach flasks in LB broth containing no salt and 50 μg/ml kanamycin at 37° C. After the culture reached an A590 of 1.2, expression of DNA polymerase was induced with 0.3 M NaCl for 3 hr. Cells were harvested by centrifugation and stored at −70° C. E. coli cells (BL21AI) bearing the plasmid pET14B with the gene for Tok13B, Tok7B, or RT69B DNA polymerase were grown in 2.8-1 Fembach flasks in LB broth containing 50 μg/ml ampicillin at 37° C. After the culture reached an A590 of 1.0, expression of DNA polymerase was induced by the addition of 0.2% arabinose for 3 hr. Cells were harvested by centrifugation and stored at −70° C.
# (§2) Steady-state kinetic measurements.
# (§3) The catalytic rate constant kcat and the Michaelis constant KM were determined for both the DNA-dependent and RNA-dependent polymerase activities for the polypeptides of the invention and these parameters were compared to those of Tne DNA polymerase enzyme and […]™ II reverse transcriptase. […]
# [2] = substrate: Nc1nc2c(ncn2[C@H]2C[C@H](O)[C@@H](COP(=O)(O)OP(=O)(O)OP(=O)(O)O)O2)c(=O)[nH]1; type: biochemical, Caldibacillus cellulovorans CompA.2; conditions: other: Table 34, DNA template, 1.5 mM MgCl2, 55 °C per footnote *
# Protocol: as §1, §2, §3
# [3] = substrate: Cc1cn([C@H]2C[C@H](O)[C@@H](COP(=O)(O)OP(=O)(O)OP(=O)(O)O)O2)c(=O)[nH]c1=O; type: biochemical, Bacillus caldolyticus EA1.3; conditions: 55 °C, mean ± SD
# Protocol: as §1, §2
# [4] = substrate: Cc1cn([C@H]2C[C@H](O)[C@@H](COP(=O)(O)OP(=O)(O)OP(=O)(O)O)O2)c(=O)[nH]c1=O; type: biochemical, Dictyoglomus thermophilum strain Rt46B.1; conditions: 72 °C
# Protocol: as §1, §2
# [5] = other: Table 40, (dA)270•(dT)40, dTTP
# [6] = other: Table 40, (rA)250•(dT)30, dTTP
protein,measurement,setting,value
B1,kcat,[1]; [5],82 ± 9 s⁻¹
same,kcat,[1]; [6],48 ± 9 s⁻¹
same,kcat,[2],200* s−1
B2,kcat,[3]; [5],73 ± 16 s⁻¹
same,kcat,[3]; [6],43 ± 7 s⁻¹
B3,kcat,"[4]; other: Table 40, (dA)270•(dT)40, dTTP, mean ± SD",39 ± 15 s⁻¹
same,kcat,"[4]; other: Table 40, (rA)250•(dT)40, dTTP",< 1 s⁻¹

# Reference: patent publication US20160108381A1, “DNA POLYMERASES AND MUTANTS THEREOF” (LIFE TECHNOLOGIES CORPORATION, priority 2001, published 2016)
